Source: publication PMC4132724

T1: Pot1pN (Schizosaccharomyces pombe, UniProt O13988 1-185)
T1 sequence: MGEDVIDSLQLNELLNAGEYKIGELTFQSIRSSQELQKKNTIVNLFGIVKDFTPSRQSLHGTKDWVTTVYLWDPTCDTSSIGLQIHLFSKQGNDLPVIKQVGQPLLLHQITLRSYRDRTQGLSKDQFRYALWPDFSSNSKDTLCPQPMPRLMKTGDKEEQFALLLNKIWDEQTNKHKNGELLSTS


Biological target: T1, Pot1pN
Experiment: EMSA

Binder | Kd [nM]
GGTCACGGTCACAGGTTACA (ssDNA) [20-mer control (GGTTAC)] | 66 ± 5
GGTCACGGTCACAGGUTACA (ssDNA, 5-hydroxymethyl-2'-deoxyuridine at position 16 (written U)) [5hmU at T3] | 67 ± 5.6
